How the values were obtained:
HIV-1 R5 B-93US142 = format: cell-based; conditions: virus preincubated 1 h with hBD in 10 mM PB; GHOST cells 48 h; GFP fluorescence
Procedure: (§1) HIV-1 strains (X4 HXB2 and R5 93US142) were incubated in 10 mM PB with increasing concentrations of hBD and used to infect GHOST X4/R5 cells. (a) Qualitative determination of HIV-1 infection, measured by GFP fluorescence, in the absence (−C) and presence (+C) of virus preincubated in 10 mM PB. (b) Anti-HIV-1 activity of hBD in GHOST X4/R5 cells using fluorescence microscopy. (c) Anti-HIV-1 activity of hBD measured by RT activity in cell-free culture supernatant, relative to the positive control (i.e., HIV-1 infection in the absence of hBD). (d) Antiretroviral activity of hBD against CXCR4- and CCR5-tropic HIV-1 strains in three different environments: DMEM+10% FBS (complete medium); DMEM alone (Medium no FBS); 10 mM PB. Viruses were incubated with 20 μg/ml of each hBD for 1 h in each condition and used to infect CEM X4/R5 cells as described. Results are representative of three independent experiments.
(§2) HIV-1 isolates were incubated with increasing concentrations (5-40 μg/ml) of hBD-1, -2, and -3, in three different conditions: high salt complete medium (RPMI-1640 or DMEM supplemented with 10% fetal bovine serum, FBS); high salt medium in the absence of FBS; or low salt medium (10 mM phosphate buffer), 37° C. for 1 h. Respective mixtures were used to infect PBMC, Ghost X4/R5 or CEM X4/R5 cells at an MOI of […]. After 2 h incubation at 37° C., 5% CO2, cells were washed three times with phosphate-buffered saline (PBS) and cultured in complete medium for 48 h. In the case of Ghost X4/R5 cells, these were washed, resuspended in PBS, and analyzed by fluorescence microscopy for GFP expression as described [Morner et al.]. Cell-free supernatants from PBMC, Ghost X4/R5 and CEM X4/R5 cultures were used to monitor infectivity by the reverse transcriptase (RT) assay [Quinones-Mateu et al.]. The 50% inhibitory concentration (IC50) of each hBD was determined using X4 or R5 HIV-1 isolates. Viruses (0.01 MOI) were incubated with increasing concentrations of hBD-1, -2, and 3 (up to 40 µg/ml) in low salt medium for 1 h and used to infect CEM X4/R5 cells. After 2 h incubation at 37° C., 5% CO2, cells were washed twice with PBS and cultured in complete medium. Supernatant samples were removed on day 5 post-infection and virus production was measured using […] the RT assay [Id.]. Cytotoxicity of hBD was quantified by determining the number of viable cells using a tetrazolium-based colorimetric (MTT) assay [Pauwels et al.].
(§3) Since the antibacterial activity of beta-defensins is sensitive to high salt and serum concentrations, the anti-HIV-1 activity of hBD was initially evaluated in a low salt, serum free environment, mimicking oral mucosal conditions [Mandel et al.]. Two HIV-1 isolates (X4 B-HXB2 and R5 B-93US142) were preincubated for 1 h with increasing concentrations of recombinant hBD-1, -2, and -3, in 10 mM phosphate buffer (PB). GHOST CCR5/CXCR4 cells were then exposed to the mixtures for 48 h in complete medium. […] When CXCR4- and CCR5-tropic HIV-1 strains were preincubated with beta-defensins in high salt medium (DMEM) supplemented with 10% FBS, no antiviral effect was detected (FIG. 4d). However, preincubation in DMEM without FBS inhibited replication of X4, but not R5, HIV-1 isolates (FIG. 4d). Under low salt conditions (i.e., 10 mM PB, no FBS) the 50% inhibitory concentration for both agents against X4 and R5 viruses ranged from 9 to 19 μg/ml and 20 to 40 μg/ml, respectively.

HIV-1 X4 B-HXB2 = format: cell-based; conditions: virus preincubated 1 h with hBD in 10 mM PB; GHOST cells 48 h; GFP fluorescence
Procedure: as §1, §2, §3

CEM X4/R5 cells = assay: Confocal microscopy, localisation of hBD on CEM X4/R5 cells; format: cell-based, human; conditions: live cells incubated with hBD, then anti-hBD antibodies
Procedure: CEM X4/R5 cells were grown in RPMI-1640 medium containing 5% FBS and 400 μg/ml G418. Cells were collected, washed twice with PBS, resuspended in RPMI with 0.5% FBS or supplemented with 20 μg/ml recombinant hBD-2 or -3, and incubated at 37° C., 5% CO2 for 3 h. A second aliquot of cells, after incubation with hBD, was treated with FACS/Perm (PharMingen) at room temperature for 10 min and then washed three times with PBS. A third aliquot of cells was fixed in 1% paraformaldehyde on ice for 30 min, washed three times with PBS, and then incubated with 20 μg/ml hBD-2 or -3. Cells were stained with PE-labeled CXCR4 or CCR5 (PharMingen), or with primary goat anti-hBD-2 antibodies (Cell Sciences, Norwood, Mass., USA), or with rabbit anti-hBD-3 antibodies (Orbingen, San Diego, Calif., USA) at room temperature for 90 min, followed by washing three times with PBS. Fluorescein isothiocyanate-labeled rabbit anti-goat IgG (Jackson ImmunoResearch, West Grove, Pa., USA) for detection of hBD-2, or goat anti-rabbit IgG (Sigma) for detection of hBD-3, were added, respectively, at room temperature and incubated for 90 min. […] All samples were observed using a dual scanning confocal microscope system (Zeiss LSM 510, Oberkochem, Germany) and analyzed with the Zeiss LSM 5 Image Browser. […]

B1: hBD-3: Recombinant human β-defensin 3 produced using an hBD-3-His tag fusion construct cloned into pET-30c; exemplary sequence SEQ ID NO:15 (protein, listed as Homo sapiens)
chain: MRIHYLLFALLFLFLVPVPGHGGIINTLQKYYCRVRGGRCAVLSCLPKEEQIGKCSTRGRKCCRRKK
modifications: not fully specified (C-terminus); ends and bridges not checked
- anti-HIV-1 activity (HIV-1 R5 B-93US142): showed anti-HIV-1 activity
- anti-HIV-1 activity (HIV-1 X4 B-HXB2): showed anti-HIV-1 activity
- detection of peptide on the cell surface (CEM X4/R5 cells): failed to detect

Reference: patent publication US7442375B2, “Compositions of beta-defensin inducing agents” (Case Western Reserve University, priority 2002, dated 2008)
